Assays:
[1] = target: T1, recombinant human connective tissue growth factor (UniProt P29279 27-349); experiment: Scatchard competitive binding; mAb 25 ng/ml
T1 chain: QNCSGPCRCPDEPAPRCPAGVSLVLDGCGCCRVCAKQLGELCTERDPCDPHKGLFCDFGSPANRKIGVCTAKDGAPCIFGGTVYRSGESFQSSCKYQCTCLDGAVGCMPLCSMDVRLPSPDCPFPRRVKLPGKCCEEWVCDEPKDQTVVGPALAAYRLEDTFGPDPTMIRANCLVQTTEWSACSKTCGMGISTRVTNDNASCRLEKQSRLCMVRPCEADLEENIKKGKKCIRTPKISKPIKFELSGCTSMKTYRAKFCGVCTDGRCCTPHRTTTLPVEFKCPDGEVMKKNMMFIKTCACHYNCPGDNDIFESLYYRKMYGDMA

rat CTGF [2] = target: T2, rat CTGF (rat, UniProt Q9R1E9 25-347); experiment: Scatchard competitive binding; mAb 10 ng/ml; labeled human CTGF vs unlabeled rat CTGF
T2 chain: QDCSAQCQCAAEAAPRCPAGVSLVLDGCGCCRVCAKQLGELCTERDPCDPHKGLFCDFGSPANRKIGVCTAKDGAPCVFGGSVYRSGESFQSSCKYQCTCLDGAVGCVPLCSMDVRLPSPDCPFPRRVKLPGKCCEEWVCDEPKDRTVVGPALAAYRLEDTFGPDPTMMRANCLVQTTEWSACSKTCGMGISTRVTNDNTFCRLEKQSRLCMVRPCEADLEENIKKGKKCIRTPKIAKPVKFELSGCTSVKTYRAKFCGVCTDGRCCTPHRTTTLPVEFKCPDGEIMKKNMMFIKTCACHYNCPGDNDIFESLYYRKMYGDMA

[3] = target: T1, recombinant human connective tissue …; experiment: Scatchard competitive binding; mAb 5 ng/ml
rat CTGF [4] = target: T2, rat CTGF; experiment: Scatchard competitive binding; mAb 5 ng/ml; labeled human CTGF vs unlabeled rat CTGF
rat CTGF [5] = target: T3, rat CTGF (rat, UniProt Q9R1E9 25-347); experiment: RIA, unlabeled rat CTGF competing with [125I]rhCTGF for immobilized antibody
T3 construct: also called unlabeled rat CTGF; recombinant rat CTGF
T3 sequence (looked up): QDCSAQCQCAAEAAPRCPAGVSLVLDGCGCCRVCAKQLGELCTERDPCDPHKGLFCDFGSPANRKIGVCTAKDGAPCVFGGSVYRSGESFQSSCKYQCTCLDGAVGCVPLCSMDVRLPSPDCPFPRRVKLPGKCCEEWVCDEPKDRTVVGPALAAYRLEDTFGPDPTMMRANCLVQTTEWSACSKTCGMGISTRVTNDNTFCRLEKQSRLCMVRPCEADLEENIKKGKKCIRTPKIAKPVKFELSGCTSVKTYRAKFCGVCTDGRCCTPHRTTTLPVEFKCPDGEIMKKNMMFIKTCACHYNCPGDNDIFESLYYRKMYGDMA
Procedure: (§1) The affinity of each antibody population identified by epitope mapping was measured using RIA, wherein whole rhCTGF was radio-iodinated and added to wells containing immobilized monoclonal antibody, as follows. Recombinant human CTGF was radiolabeled with ¹²⁵I using the chloramine-T method. (See, Greenwood et al. (1963) Biochem J 89:114-123.) Typically, at least 60% of the ¹²⁵I was incorporated and the specific activity of the labeled CTGF was at least 1×10⁵ cpm/ng, although labeled CTGF of lower specific activity can be used in the radioimmunoassay. Goat anti-human IgG, γFc-specific capture antibody (Jackson ImmunoResearch) in Ca²⁺- and Mg²⁺-free DPBS (Mediatech, Herrndon Va.) was added to the wells of a MAXISORP BREAKAPART microtiter plate (Nalge Nunc International, Rochester N.Y.) and allowed to bind overnight at 4° C. The wells were then blocked with 1% BSA in Ca²⁺- and Mg²⁺-free DPBS for at least 4 hours at 4° C. The blocking solution was removed and 100 μl of test antibody at 2-50 ng/ml in Ca²⁺- and Mg²⁺-free DPBS was added and allowed to bind overnight at 4° C. […] Wells were then washed four times with 0.1% Tween 20 in Ca²⁺- and Mg²⁺-free PBS (Mediatech), and the wells of the microtiter plate were separated and counted in a gamma counter. […]

8MER = target: T4, 8MER; experiment: ELISA with synthetic peptide
T4 peptide: DSPFPRRV

PC5445 = target: T5, PC5445 (human); experiment: ELISA with synthetic peptide
T5 peptide: RLPSPDSPFPRRVKLPGK

5MER = target: T6, 5MER; experiment: ELISA with synthetic peptide
T6 construct: The N-terminal C is probably the added, non-native cysteine (underlining lost in the text)
T6 peptide: CRVKL

P40340 = target: T7, P40340 (human); experiment: ELISA with synthetic peptide
T7 peptide: RLPSPDCPFPRRV

P40342 = target: T8, P40342 (human); experiment: ELISA with synthetic peptide
T8 peptide: LPSPDCPFPRRVKL

7MER = target: T9, 7MER; experiment: ELISA with synthetic peptide
T9 construct: The N-terminal C is probably the added, non-native cysteine (underlining lost in the text)
T9 peptide: CPRRVKL

10MER2 = target: T10, 10MER2; experiment: ELISA with synthetic peptide
T10 peptide: SPDCPFPRRV

9MER2 = target: T11, 9MER2; experiment: ELISA with synthetic peptide
T11 peptide: CPFPRRVKL

10MER = target: T12, 10MER; experiment: ELISA with synthetic peptide
T12 peptide: SPDSPFPRRV

6MER = target: T13, 6MER; experiment: ELISA with synthetic peptide
T13 construct: The N-terminal C is probably the added, non-native cysteine (underlining lost in the text)
T13 peptide: CRRVKL

PC5444 = target: T14, PC5444; experiment: ELISA with synthetic peptide
T14 construct: Synthetic peptide of the exon 3 region with Ser where native CTGF has Cys
T14 peptide: PLSSMDVRLPSPDS

P40341 = target: T15, P40341; experiment: ELISA with synthetic peptide
T15 construct: Same as P40340 with Ser in place of the Cys
T15 peptide: RLPSPDSPFPRRV

9MER = target: T16, 9MER; experiment: ELISA with synthetic peptide
T16 peptide: PDSPFPRRV

PEP5 = target: T17, PEP5 (human); experiment: ELISA with synthetic peptide
T17 peptide: RLPSPDCPFPRRVKL

8MER2 = target: T18, 8MER2; experiment: ELISA with synthetic peptide
T18 peptide: CFPRRVKL

[6] = target: T1, recombinant human connective tissue …; experiment: Scatchard competitive binding; mAb 2.5 ng/ml
[7] = target: T1, recombinant human connective tissue …; experiment: Scatchard competitive binding; mAb 10 ng/ml
[8] = target: T19, recombinant human connective tissue growth factor (human, UniProt P29279 27-349); experiment: RIA, immobilized antibody, [125I]rhCTGF with unlabeled rhCTGF, Scatchard
T19 construct: Radio-iodinated in the RIA; also called rhCTGF; CTGF
T19 sequence: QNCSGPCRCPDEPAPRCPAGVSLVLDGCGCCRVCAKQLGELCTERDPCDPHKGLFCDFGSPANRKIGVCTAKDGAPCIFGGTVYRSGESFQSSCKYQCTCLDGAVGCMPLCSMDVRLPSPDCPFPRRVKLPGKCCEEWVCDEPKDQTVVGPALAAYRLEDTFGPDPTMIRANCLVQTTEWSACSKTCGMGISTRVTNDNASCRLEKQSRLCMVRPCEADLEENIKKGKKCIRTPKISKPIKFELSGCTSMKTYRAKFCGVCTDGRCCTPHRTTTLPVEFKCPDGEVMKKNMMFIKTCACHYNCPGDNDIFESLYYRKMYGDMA
Procedure: The affinity of each antibody population identified by epitope mapping was measured using RIA, wherein whole rhCTGF was radio-iodinated and added to wells containing immobilized monoclonal antibody, as follows. Recombinant human CTGF was radiolabeled with ¹²⁵I using the chloramine-T method. (See, Greenwood et al. (1963) Biochem J 89:114-123.) Typically, at least 60% of the ¹²⁵I was incorporated and the specific activity of the labeled CTGF was at least 1×10⁵ cpm/ng, although labeled CTGF of lower specific activity can be used in the radioimmunoassay. Goat anti-human IgG, γFc-specific capture antibody (Jackson ImmunoResearch) in Ca²⁺- and Mg²⁺-free DPBS (Mediatech, Herrndon Va.) was added to the wells of a MAXISORP BREAKAPART microtiter plate (Nalge Nunc International, Rochester N.Y.) and allowed to bind overnight at 4° C. The wells were then blocked with 1% BSA in Ca²⁺- and Mg²⁺-free DPBS for at least 4 hours at 4° C. […] Wells were then washed four times with 0.1% Tween 20 in Ca²⁺- and Mg²⁺-free PBS (Mediatech), and the wells of the microtiter plate were separated and counted in a gamma counter.
Affinity was estimated graphically by the method of Scatchard (1948, Ann NY Acad Sci 51:660-72). The total concentration of labeled CTGF applied to the plate was calculated as […]

[9] = target: T19, recombinant human connective tissue …; experiment: RIA as in Example 4.2
Procedure: as §1

[10] = target: T19, recombinant human connective tissue …; experiment: not stated (assays as described in Example 4)

B1: mAb1 (antibody, V domains shown)
VH: EGQLVQSGGGLVHPGGSLRLSCAGSGFTFSSYGMHWVRQAPGKGLEWVSGIGTGGGTYSTDSVKGRFTISRDNAKNSLYLQMNSLRAEDMAVYYCARGDYYGSGSFFDCWGQGTLVTVSS
VL: DIQMTQSPSSLSASVGDRVTITCRASQGISSWLAWYQQKPEKAPKSLIYAASSLQSGVPSRFSGSGSGTDFTLTISSLQPEDFATYYCQQYNSYPPTFGQGTKLEIKR
notes: also called exemplary antibody of the invention; antibody of hybridoma cell line 8C12-F10
Kd [1]: 0.384 nM | Kd (rat CTGF [2]): 0.339 nM | Kd [3]: 0.239 nM | Kd (rat CTGF [4]): 0.317 nM | binding result (rat CTGF [5]): binds | binding result (8MER): no binding | binding result (PC5445): binds | binding result (5MER): no binding | binding result (P40340): binds | binding result (P40342): binds | binding result (7MER): no binding | binding result (10MER2): no binding | binding result (9MER2): no binding | binding result (10MER): no binding | binding result (6MER): no binding | binding result (PC5444): no binding | binding result (P40341): no binding | binding result (9MER): no binding | binding result (PEP5): binds | binding result (8MER2): no binding | Kd [6]: 0.215 nM | Kd [7]: 0.271 nM | Kd [8]: < 1 nM

B2: deglycosylated mAb1 (antibody, V domains shown)
VH: EGQLVQSGGGLVHPGGSLRLSCAGSGFTFSSYGMHWVRQAPGKGLEWVSGIGTGGGTYSTDSVKGRFTISRDNAKNSLYLQMNSLRAEDMAVYYCARGDYYGSGSFFDCWGQGTLVTVSS
VL: DIQMTQSPSSLSASVGDRVTITCRASQGISSWLAWYQQKPEKAPKSLIYAASSLQSGVPSRFSGSGSGTDFTLTISSLQPEDFATYYCQQYNSYPPTFGQGTKLEIKR
modifications: N-linked oligosaccharides removed with peptide N-glycosidase F (PNGase F)
notes: also called deglycosylated antibody; PNGase F treated mAb1
binding result [9]: binds

B3: CLN1 (antibody, V domains shown)
VH: EGQLVQSGGGLVHPGGSLRLSCAGSGFTFSSYGMHWVRQAPGKGLEWVSGIGTGGGTYSTDSVKGRFTISRDNAKNSLYLQMNSLRAEDMAVYYCARGDYYGSGSFFDCWGQGTLVTVSS
VL: DIQMTQSPSSLSASVGDRVTITCRASQGISSWLAWYQQKPEKAPKSLIYAASSLQSGVPSRFSGSGSGTDFTLTISSLQPEDFATYYCQQYNSYPPTFGQGTKLEIKR
notes: also called recombinant antibody from COS7 cells co-transfected with plasmids 44a1 and 42b2
Kd [10]: 0.8 nM

Source: patent publication US20040248206A1 (FIBROGEN, published 2004)
